The results in this text go back to patent US20150307625A1 (Bayer, published 2015).

Changes are numbered by the printed parent chain.

In test [1] the target is T1, human activated Protein C (human, UniProt P04070 43-461).
T1 construct: also called human aPC; hAPC
The experiment in a line: direct ELISA, aPC coated, hIgG1.

The target in test [2] is rabbit activated Protein C (rabbit) (UniProt Q28661). The experiment in a line: direct ELISA, aPC coated, hIgG1.
Test [3] has the same target. In words: ELISA, hIgG1.
The target in test [4] is T1, human activated Protein C. In words: cell-based or functional assay.
The target of test [5] is T1, human activated Protein C. In words: ELISA, hIgG1.
Test [6] concerns the target rabbit activated Protein C (rabbit) (UniProt Q28661). In words: cell-based or functional assay.
The target in test [7] is T2, dog activated Protein C (dog, UniProt Q28278 43-456).
T2 construct: mature; also called dog aPC; dAPC
T2 sequence (looked up): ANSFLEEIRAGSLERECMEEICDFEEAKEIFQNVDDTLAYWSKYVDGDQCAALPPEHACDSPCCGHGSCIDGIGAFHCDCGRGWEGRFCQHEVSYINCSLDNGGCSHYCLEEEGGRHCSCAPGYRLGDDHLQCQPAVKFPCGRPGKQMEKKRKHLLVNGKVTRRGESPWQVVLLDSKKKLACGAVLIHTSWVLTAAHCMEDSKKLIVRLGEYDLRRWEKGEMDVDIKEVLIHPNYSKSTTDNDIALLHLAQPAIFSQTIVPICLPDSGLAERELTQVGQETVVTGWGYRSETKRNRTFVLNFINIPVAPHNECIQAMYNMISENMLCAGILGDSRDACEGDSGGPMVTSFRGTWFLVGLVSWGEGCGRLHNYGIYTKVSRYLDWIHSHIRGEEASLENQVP
The experiment in a line: direct ELISA, aPC coated, hIgG1.

Test [8] has as its target T3, dog Protein C (zymogen) (dog, UniProt Q28278 43-456).
T3 construct: mature; also called dog PC
T3 sequence (looked up): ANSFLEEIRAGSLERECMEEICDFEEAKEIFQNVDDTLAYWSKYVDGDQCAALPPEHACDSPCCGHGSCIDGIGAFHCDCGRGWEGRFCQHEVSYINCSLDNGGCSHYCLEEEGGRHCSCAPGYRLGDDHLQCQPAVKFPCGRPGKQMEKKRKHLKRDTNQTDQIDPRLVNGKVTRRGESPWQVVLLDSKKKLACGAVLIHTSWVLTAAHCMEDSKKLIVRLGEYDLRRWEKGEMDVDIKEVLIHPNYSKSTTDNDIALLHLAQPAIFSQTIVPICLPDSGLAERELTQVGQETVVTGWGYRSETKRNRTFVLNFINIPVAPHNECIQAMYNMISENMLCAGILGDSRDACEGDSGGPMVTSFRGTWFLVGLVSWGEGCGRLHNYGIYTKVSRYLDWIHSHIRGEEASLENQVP
In words: direct ELISA, antigen coated.

Test [9] concerns the target T2, dog activated Protein C. In words: cell-based or functional assay.
Test [10] has as its target T2, dog activated Protein C. The experiment in a line: ELISA, hIgG1.
Test [11] deals with T4, mouse Protein C (zymogen) (mouse, UniProt P33587 42-460).
T4 construct: mature; also called mouse PC
T4 sequence (looked up): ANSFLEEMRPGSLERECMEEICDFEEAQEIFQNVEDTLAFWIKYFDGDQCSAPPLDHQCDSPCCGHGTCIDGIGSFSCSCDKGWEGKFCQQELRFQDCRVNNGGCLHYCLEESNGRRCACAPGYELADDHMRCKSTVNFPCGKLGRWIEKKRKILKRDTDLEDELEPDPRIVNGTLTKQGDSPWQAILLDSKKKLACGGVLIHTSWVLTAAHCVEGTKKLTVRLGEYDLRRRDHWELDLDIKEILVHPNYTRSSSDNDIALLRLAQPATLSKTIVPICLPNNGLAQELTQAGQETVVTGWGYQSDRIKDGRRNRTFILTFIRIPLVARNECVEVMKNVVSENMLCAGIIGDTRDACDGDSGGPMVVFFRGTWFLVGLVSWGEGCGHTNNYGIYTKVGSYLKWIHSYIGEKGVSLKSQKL
In words: direct ELISA, mPC coated at 10 ug/ml, Fab at 20 nM, anti-human Fab-HRP, AmplexRed (RFU). How it is done: (§1) To determine the binding selectivity of these fabs, their binding activities to the proenzyme human PC, to thrombin (FIIa), and to the activated Factor II (FIIa, thrombin), Factor VII (FVIIa), Factor IX (FIXa), and Factor X (FXa) were also assessed by ELISA. Briefly, an ELISA plate was coated with human aPC at 1 ug/ml, mouse PC at 10 ug/ml, dog PC at 10 ug/ml, other coagulation factors (FIIa, FVIIa, FIXa, FXa) at 5-10 ug/ml. Anti-aPC Fabs were added to the wells at 20 nM (1 ug/ml). Bound Fabs were detected by the secondary antibody (anti-human Fab-HRP) followed by HRP substrate AmplexRed.

Test [12] addresses T2, dog activated Protein C. In words: Biacore, Fab.
Test [13] concerns the target T3, dog Protein C (zymogen). In words: direct ELISA, dPC coated at 10 ug/ml, Fab at 20 nM, anti-human Fab-HRP, AmplexRed (RFU). How it is done:
as §1

Test [14] has as its target T2, dog activated Protein C. The experiment in a line: direct ELISA, antigen coated, Fab.
Test [15] has as its target T5, human Protein C (zymogen) (human, UniProt P04070 43-461).
T5 construct: also called human PC; hPC
The experiment in a line: direct ELISA, antigen coated at 1 ug/ml, IgG at 20 nM, anti-human IgG-HRP, AmplexRed (RFU).

For test [16], the target named is T1, human activated Protein C. In words: cell-based or functional assay. The source holds these as a separate data set.
Test [17] has as its target T1, human activated Protein C. In words: Biacore, Fab.
Test [18] deals with T5, human Protein C (zymogen). The experiment in a line: direct ELISA, antigen coated at 100 ng/well, Fab at 20 nM (1 ug/ml), anti-human Fab-HRP, AmplexRed (RFU). How it is done: FIG. 3 depicts a graph characterizing anti-APC Fabs by direct ELISA. An ELISA plate was coated with human PC (hPC), human aPC (hAPC), dog aPC (dAPC), mouse aPC (mAPC) at 100 ng per well. Purified Fabs designate on the X-axis were added to the plate at 20 nM (1 ug/ml). Bound Fab was detected by the secondary antibody (anti-human Fab-HRP) followed by HRP substrate AmplexRed. The purified Fabs preferentially bind to human aPC and, with the exception of Fab R41C17, show little to no binding to human PC.
Antigens were coated directly on ELISA plates. Coating antigens included human PC (plasma-derived), human aPC (recombinant), dog aPC (plasma-derived), and mouse aPC (recombinant) at 100 ng/well in PBS/Ca buffer. After blocking the plate with 5% milk/PBS and washing the plate with PBS-Tween20, soluble Fabs (1 ug/ml, 20 nM) were added to the plate and incubated for 1 h at RT with shaking. Fab binding was detected with anti-human Fab (lambda) antibody-HRP and Amplex red as substrate. […] In contrast, R41C17 binds to both human APC and human PC. Also shown in FIG. 3 is cross-species reactivity of Fabs by ELISA.

Test [19] deals with T1, human activated Protein C. The experiment in a line: direct ELISA, antigen coated, Fab.

B1: C22J13 hIgG1 (antibody, V domains shown)
VH: EVQLLESGGGLVQPGGSLRLSCAASGFTFSSNYMSWVRQAPGKGLEWVAVISYDGSNKYYADSVKGRFTISRDNSKNTLYLQMNSLRAEDTAMYYCALTGRSGWMRFPNWFDPWGQGTLVTVTS
VL: QSVLTQPPSASGTPGQRVTISCSGSDSNIGSNAVNWYQQLPGTAPKLLIYDNNKRPSGVPDRFSGSKSGTSASLAISGLRSEDEADYYCSSYTSSNTVVFGGGTKLTVLG
Consider B1, for which the EC50 in test [1] was determined as 0.49 nM; in test [2], 0.6 nM; in test [3], 0.6 nM; in [5], 0.5 nM. For the same molecule, the “Anti-aPC IC50 (nM), Amidolytic activity” value in test [4] stood at 27 nM; in [6], 24 nM.

B2: C7A23 hIgG1 (antibody, V domains shown)
VH: EVQLLESGGGLVQPGGSLRLSCAASGFTFGNHWMTWVRQAPGKGLEWVSGVSWNGSRTHYADSVKGRFTISRDNSKNTLYLQMNSLRAEDTAVYYCALTGRSGWMRFPNWFDPWGQGTLVTVTS
VL: QSVLTQPPSASGTPGQRVTISCSGSSSNIGNNYVSWYQQLPGTAPKLLIYRNNQRPSGVPDRFSGSKSGTSASLAISGLRSEDEADYYCQSYDSDLSGPYVLFGGGTKLTVLG
notes: also called C7A23-IgG
Regarding B2, the EC50 in [7] stood at 10.9 nM; in [2], 7 nM; in [3], 7 nM; in test [10] it was 10.9 nM. In test [8], the binding result is on record as “no binding”. Besides, the figures for the “Anti-aPC IC50 (nM), Amidolytic activity” value in [9] and in [6] were 49 nM and 25 nM, respectively.

B3: C7A23 Fab (Fab, V domains shown)
VH: B2 VH
VL: B2 VL
notes: Human Fab (lambda) from a phage library, expressed in E. coli
On to B3, for which the binding result in [11] and in test [13] was “no binding (tested: 20 nM)” in each case. This molecule also had a Kd in test [12] of 1.3 nM. The molecule also returned an EC50 in test [14] of 6 nM.

B4: C7I7 hIgG1 (antibody, V domains shown)
VH: B2 VH
VL: QSVLTQPPSASGTPGQRVTISCTGSSSNIGAGYDVHWYQQLPGTAPKLLIYGNSNRPSGVPDRFSGSKSGTSASLAISGLRSEDEAAYYCSSYVGSDLVVFGGGTKLTVLG
notes: also called C717-IgG
B4: the EC50 in [7] came out at 2.3 nM; in test [1], 2.66 nM; in test [2], 2 nM; in test [3] it was 2 nM; in [10], 2.3 nM; in [5], 2.7 nM. Moreover, the binding result in [8] was “no binding”; in [15] it was “no binding (tested: 20 nM)”. Also, the “Anti-aPC IC50 (nM), Amidolytic activity” value in [9] was 147 nM; in test [4] it was 64 nM; in test [6] it was 29 nM. Besides, in [16], the “aPTT, inhibition of aPC activity at 1 ug/ml IgG (1:1 molar ratio)” value is roughly 50%.

B5: C7I7 Fab (Fab, V domains shown)
VH: B2 VH
VL: B4 VL
notes: Human Fab (lambda) from a phage library, expressed in E. coli; also called C717
Turning to B5, the binding result in test [11], in test [13] and in test [18] was “no binding (tested: 20 nM)” each time. Also, the Kd in [12] and in test [17] was 1.3 nM in each case. The EC50 in test [14] came out at 3.9 nM; in [19], 6.3 nM.

B6: C25K23 Fab (Fab, V domains shown)
VH: B2 VH with G30S, N31S, H32Y, T35S
VL: QSVLTQPPSASGTPGQRVTISCTGSSSNIGAAYDVHWYQQLPGTAPKLLIYGNNKRPSGVPDRFSGSKSGTSASLAISGLRSEDEADYYCQSYDSSLSGSVFGGGTKLTVLG
notes: Human Fab (lambda) from a phage library, expressed in E. coli; also called Fab C25K23
In the case of B6, the binding result in test [11], in test [13] and in test [18] was “no binding (tested: 20 nM)” each time. The Kd came to 5.2 nM in test [12] and 2 nM in test [17]. Further, the EC50 in test [14] worked out at 8.2 nM; in [19] it was 4.3 nM.

B7: C25K23 IgG1 (antibody, V domains shown)
VH: B2 VH with G30S, N31S, H32Y, T35S, T123S
VL: B6 VL
notes: the claims call them variable regions; also called C25K23 hIgG; C25K23 hIgG1
For the molecule B7, the EC50 in test [7] is 3.4 nM; in test [1], 1.25 nM; in test [10], 3.4 nM; in [5] it was 1.2 nM. Also, the binding result in test [8] is reported as “no binding”; in test [15], “no binding (tested: 20 nM)”. The “Anti-aPC IC50 (nM), Amidolytic activity” value was found to be 692 nM in test [9] and 131 nM in test [4].
